Assay [1] deals with anti-C-reactive protein antibody (MAB-1). In words: TR-FRET competition, acceptor emission; unlabeled CRP calibrator at 20.4 mg/L.
For assay [2] the target is unchanged. Kind of assay: TR-FRET competition, acceptor emission; unlabeled CRP calibrator at 118.7 mg/L.
For assay [3] the target is unchanged. In words: TR-FRET competition, acceptor emission; unlabeled CRP calibrator at 2.9 mg/L.
Assay [4] shares this target. In words: TR-FRET competition; labeled anti-CRP MAB-1 with labeled CRP as tracer; unlabeled CRP calibrator at 60.5 mg/L.
Assay [5] has the same target. Kind of assay: TR-FRET competition; labeled anti-CRP MAB-1 with labeled CRP as tracer; unlabeled CRP calibrator at 8.1 mg/L.
The target is the same in assay [6]. Kind of assay: TR-FRET competition, acceptor emission; unlabeled CRP calibrator at 8.1 mg/L.
The target is the same in assay [7]. Kind of assay: TR-FRET competition; labeled anti-CRP MAB-1 with labeled CRP as tracer; unlabeled CRP calibrator at 2.9 mg/L.
Assay [8] shares this target. In words: TR-FRET competition, acceptor emission; unlabeled CRP calibrator at 60.5 mg/L.
The target is the same in assay [9]. Kind of assay: TR-FRET competition; labeled anti-CRP MAB-1 with labeled CRP as tracer; unlabeled CRP calibrator at 118.7 mg/L.
For assay [10] the target is unchanged. In words: TR-FRET competition; labeled anti-CRP MAB-1 with labeled CRP as tracer; unlabeled CRP calibrator at 20.4 mg/L.

In patent US20220146501A1 one finds Acceptor1RFU and FRETRatio data, which are given here for one molecule.

B1: C-reactive protein (unlabeled analyte / calibrator) (protein)
chain: QTDMSRKAFVFPKESDTSYVSLKAPLTKPLKAFTVCLHFYTELSSTRGYSIFSYATKRQDNEILIFWSKDIGYSFTVGGSEILFEVPEVTVAPVHICTSWESASGIVEFWVDGKPRVRKSLKKGYTVGAEASIILGQEQDSFGGNFEGSQSLVGDIGNVNMWDFVLSPDEINTIYLGGPFSPNVLNWRALKYEVQGEVFTKPQLWP
With B1, the Acceptor1RFU in assay [1] stood at 103000 RFU; in assay [2] it was 29900 RFU; in assay [3], 210000 RFU; in assay [6] it was 162000 RFU; in [8], 49700 RFU. The FRETRatio in assay [4] stood at 3980; in [5] it was 13100; in assay [7] it was 17100; in [9] it was 2320; in assay [10], 8220.
